B1: Drosha (endogenous, immunoprecipitated from SEMK2 or PER377 nuclear extracts) (enzyme, human, UniProt Q9NRR4 1-1374, looked up)
chain: MMQGNTCHRMSFHPGRGCPRGRGGHGARPSAPSFRPQNLRLLHPQQPPVQYQYEPPSAPSTTFSNSPAPNFLPPRPDFVPFPPPMPPSAQGPLPPCPIRPPFPNHQMRHPFPVPPCFPPMPPPMPCPNNPPVPGAPPGQGTFPFMMPPPSMPHPPPPPVMPQQVNYQYPPGYSHHNFPPPSFNSFQNNPSSFLPSANNSSSPHFRHLPPYPLPKAPSERRSPERLKHYDDHRHRDHSHGRGERHRSLDRRERGRSPDRRRQDSRYRSDYDRGRTPSRHRSYERSRERERERHRHRDNRRSPSLERSYKKEYKRSGRSYGLSVVPEPAGCTPELPGEIIKNTDSWAPPLEIVNHRSPSREKKRARWEEEKDRWSDNQSSGKDKNYTSIKEKEPEETMPDKNEEEEEELLKPVWIRCTHSENYYSSDPMDQVGDSTVVGTSRLRDLYDKFEEELGSRQEKAKAARPPWEPPKTKLDEDLESSSESECESDEDSTCSSSSDSEVFDVIAEIKRKKAHPDRLHDELWYNDPGQMNDGPLCKCSAKARRTGIRHSIYPGEEAIKPCRPMTNNAGRLFHYRITVSPPTNFLTDRPTVIEYDDHEYIFEGFSMFAHAPLTNIPLCKVIRFNIDYTIHFIEEMMPENFCVKGLELFSLFLFRDILELYDWNLKGPLFEDSPPCCPRFHFMPRFVRFLPDGGKEVLSMHQILLYLLRCSKALVPEEEIANMLQWEELEWQKYAEECKGMIVTNPGTKPSSVRIDQLDREQFNPDVITFPIIVHFGIRPAQLSYAGDPQYQKLWKSYVKLRHLLANSPKVKQTDKQKLAQREEALQKIRQKNTMRREVTVELSSQGFWKTGIRSDVCQHAMMLPVLTHHIRYHQCLMHLDKLIGYTFQDRCLLQLAMTHPSHHLNFGMNPDHARNSLSNCGIRQPKYGDRKVHHMHMRKKGINTLINIMSRLGQDDPTPSRINHNERLEFLGDAVVEFLTSVHLYYLFPSLEEGGLATYRTAIVQNQHLAMLAKKLELDRFMLYAHGPDLCRESDLRHAMANCFEALIGAVYLEGSLEEAKQLFGRLLFNDPDLREVWLNYPLHPLQLQEPNTDRQLIETSPVLQKLTEFEEAIGVIFTHVRLLARAFTLRTVGFNHLTLGHNQRMEFLGDSIMQLVATEYLFIHFPDHHEGHLTLLRSSLVNNRTQAKVAEELGMQEYAITNDKTKRPVALRTKTLADLLESFIAALYIDKDLEYVHTFMNVCFFPRLKEFILNQDWNDPKSQLQQCCLTLRTEGKEPDIPLYKTLQTVGPSHARTYTVAVYFKGERIGCGKGPSIQQAEMGAAMDALEKYNFPQMAHQKRFIERKYRQELKEMRWEREHQEREPDETEDIKK
notes: Endogenous protein in nuclear extracts, not a purified recombinant construct; also called nuclear RNase III enzyme; SEMK2 Drosha

Key:
[1] = target: T1, normal p300 All1 (endogenous) (human, UniProt Q03164 1-2718, limits assumed); test: co-immunoprecipitation with anti-Drosha Ab from nuclear extracts, Western blot
T1 construct: also called normal All1
T1 sequence (Q03164 1-2718 limits assumed): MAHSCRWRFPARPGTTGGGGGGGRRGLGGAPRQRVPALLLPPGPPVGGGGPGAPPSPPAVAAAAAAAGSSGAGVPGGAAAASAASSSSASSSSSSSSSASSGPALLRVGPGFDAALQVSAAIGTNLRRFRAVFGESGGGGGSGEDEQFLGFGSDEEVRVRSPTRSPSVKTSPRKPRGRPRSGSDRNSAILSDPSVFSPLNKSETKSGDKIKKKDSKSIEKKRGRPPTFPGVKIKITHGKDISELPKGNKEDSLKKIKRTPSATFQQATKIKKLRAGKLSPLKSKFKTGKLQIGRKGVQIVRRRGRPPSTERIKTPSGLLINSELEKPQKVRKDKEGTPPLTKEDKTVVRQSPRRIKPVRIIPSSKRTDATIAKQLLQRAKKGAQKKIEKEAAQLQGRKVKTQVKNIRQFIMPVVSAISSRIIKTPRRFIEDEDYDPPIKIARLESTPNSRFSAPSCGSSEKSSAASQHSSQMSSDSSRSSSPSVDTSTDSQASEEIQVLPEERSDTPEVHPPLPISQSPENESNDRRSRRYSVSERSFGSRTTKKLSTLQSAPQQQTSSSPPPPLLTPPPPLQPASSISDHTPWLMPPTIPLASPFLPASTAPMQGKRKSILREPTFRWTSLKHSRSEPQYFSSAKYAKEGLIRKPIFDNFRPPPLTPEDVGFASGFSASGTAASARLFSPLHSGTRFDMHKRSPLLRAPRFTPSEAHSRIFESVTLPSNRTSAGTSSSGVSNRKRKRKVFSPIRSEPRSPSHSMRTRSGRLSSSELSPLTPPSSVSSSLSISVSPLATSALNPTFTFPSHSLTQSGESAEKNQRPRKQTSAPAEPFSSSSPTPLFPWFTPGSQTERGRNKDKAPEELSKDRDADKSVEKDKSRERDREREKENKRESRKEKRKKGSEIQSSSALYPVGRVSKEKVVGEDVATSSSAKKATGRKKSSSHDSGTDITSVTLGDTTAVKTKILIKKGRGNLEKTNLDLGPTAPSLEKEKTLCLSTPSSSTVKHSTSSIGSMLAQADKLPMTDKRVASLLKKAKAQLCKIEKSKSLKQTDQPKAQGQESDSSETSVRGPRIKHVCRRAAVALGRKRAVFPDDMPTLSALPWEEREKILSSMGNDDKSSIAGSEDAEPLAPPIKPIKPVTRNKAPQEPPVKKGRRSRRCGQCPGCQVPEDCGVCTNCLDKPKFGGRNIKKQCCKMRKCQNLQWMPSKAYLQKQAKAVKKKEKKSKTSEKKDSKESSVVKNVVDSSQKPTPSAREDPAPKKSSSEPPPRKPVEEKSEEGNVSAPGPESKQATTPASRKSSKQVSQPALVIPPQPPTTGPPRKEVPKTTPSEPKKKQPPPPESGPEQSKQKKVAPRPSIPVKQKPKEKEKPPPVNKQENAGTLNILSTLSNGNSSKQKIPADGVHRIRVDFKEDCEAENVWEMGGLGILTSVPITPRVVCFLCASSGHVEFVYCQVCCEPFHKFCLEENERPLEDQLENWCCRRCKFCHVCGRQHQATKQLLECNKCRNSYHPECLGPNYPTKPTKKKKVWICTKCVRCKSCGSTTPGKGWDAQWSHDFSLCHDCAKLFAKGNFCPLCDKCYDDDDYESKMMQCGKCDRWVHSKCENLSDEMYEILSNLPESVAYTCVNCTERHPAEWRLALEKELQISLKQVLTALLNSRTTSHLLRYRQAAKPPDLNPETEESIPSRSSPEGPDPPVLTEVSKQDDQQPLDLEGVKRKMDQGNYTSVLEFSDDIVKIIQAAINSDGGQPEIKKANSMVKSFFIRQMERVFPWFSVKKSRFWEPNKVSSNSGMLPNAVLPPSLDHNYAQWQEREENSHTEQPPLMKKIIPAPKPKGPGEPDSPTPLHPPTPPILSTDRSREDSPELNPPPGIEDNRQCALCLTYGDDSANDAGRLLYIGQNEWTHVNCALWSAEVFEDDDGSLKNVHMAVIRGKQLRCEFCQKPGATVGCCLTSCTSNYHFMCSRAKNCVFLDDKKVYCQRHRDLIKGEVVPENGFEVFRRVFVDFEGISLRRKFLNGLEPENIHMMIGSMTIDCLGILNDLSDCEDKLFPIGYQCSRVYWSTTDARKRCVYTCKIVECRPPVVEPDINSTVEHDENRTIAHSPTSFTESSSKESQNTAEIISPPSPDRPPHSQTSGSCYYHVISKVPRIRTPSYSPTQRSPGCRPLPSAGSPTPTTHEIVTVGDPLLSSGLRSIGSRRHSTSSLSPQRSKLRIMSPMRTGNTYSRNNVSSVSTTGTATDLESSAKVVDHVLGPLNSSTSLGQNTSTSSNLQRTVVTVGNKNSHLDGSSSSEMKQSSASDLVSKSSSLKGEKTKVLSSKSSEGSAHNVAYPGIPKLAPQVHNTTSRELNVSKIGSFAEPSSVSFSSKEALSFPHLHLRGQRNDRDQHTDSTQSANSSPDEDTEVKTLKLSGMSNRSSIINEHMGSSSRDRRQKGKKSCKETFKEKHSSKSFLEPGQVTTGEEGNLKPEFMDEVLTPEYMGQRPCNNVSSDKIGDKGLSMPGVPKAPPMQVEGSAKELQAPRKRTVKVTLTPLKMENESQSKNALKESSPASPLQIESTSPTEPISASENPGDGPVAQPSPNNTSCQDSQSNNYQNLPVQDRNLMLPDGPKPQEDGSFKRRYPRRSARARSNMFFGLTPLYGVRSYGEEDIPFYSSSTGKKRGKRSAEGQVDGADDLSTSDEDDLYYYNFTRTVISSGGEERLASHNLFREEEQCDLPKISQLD
Method: (§1) FIG. 2A) Western blot detection of immunoprecipitated proteins. […] For unambiguous identification of Drosha, recombinant Drosha exogenously expressed in K562 cells transfected with pCK-Drosha-Flag plasmid was purified by IP (Drosha:FLAG). 20 μg nuclear extracts of leukemic cells or around 2.5 μg of immuno-purified Drosha were used in the analysis. Note that endogenous Drosha was purified from nuclear extracts while Drosha:FLAG was from whole cell lyzate.
(§2) K562 cells were transfected with pCK-drosha-flag by using a Nucleofector apparatus according to the manufacturer's instructions (AMAXA). 2 ×10^8 transfected cells were lysed and subjected to IP with anti-Flag M2 mAb as described in ref. 11. Briefly, 25 mg whole cell lysate were incubated with 500 μg mAb after preclearing with protein G Sepharose (GE Healthcare) at 4° C., O/N. Immunocomplex was precipitated with protein G Sepharose, washed, and the Drosha:FLAG in the precipitate was eluted by adding 3×FLAG peptide at a concentration of 0.4 mg/ml in a buffer containing 30 mM Hepes, pH7.4/100 mM KCl/5% Glycerol/0.2 mM EDTA/7.5 mM MgCl_2/2 mM DTT. Elution was repeated three times, each for 30 min at RT, and eluates were combined. For immunoprecipitation of endogenous Drosha, 50 mg of nuclear extracts from SEMK2 or PER377 cells prepared by the method of Dignam et al. (19) were subjected to IP with 300 μg of anti-Drosha Ab. […]

[2] = target: B1; test: co-IP with anti-Drosha Ab, Western blot
Method: as §1, §2

binding result [1] | binding result [2] | Binder
no binding | – | B1
– | binds | DGCR8 (endogenous) (other, human, UniProt Q8WYQ5 1-773, looked up) METDESPSPLPCGPAGEAVMESRARPFQALPREQSPPPPLQTSSGAEVMDVGSGGDGQSELPAEDPFNFYGASLLSKGSFSKGRLLIDPNCSGHSPRTARHAPAVRKFSPDLKLLKDVKISVSFTESCRSKDRKVLYTGAERDVRAECGLLLSPVSGDVHACPFGGSVGDGVGIGGESADKKDEENELDQEKRVEYAVLDELEDFTDNLELDEEGAGGFTAKAIVQRDRVDEEALNFPYEDDFDNDVDALLEEGLCAPKKRRTEEKYGGDSDHPSDGETSVQPMMTKIKTVLKSRGRPPTEPLPDGWIMTFHNSGVPVYLHRESRVVTWSRPYFLGTGSIRKHDPPLSSIPCLHYKKMKDNEEREQSSDLTPSGDVSPVKPLSRSAELEFPLDEPDSMGADPGPPDEKDPLGAEAAPGALGQVKAKVEVCKDESVDLEEFRSYLEKRFDFEQVTVKKFRTWAERRQFNREMKRKQAESERPILPANQKLITLSVQDAPTKKEFVINPNGKSEVCILHEYMQRVLKVRPVYNFFECENPSEPFGASVTIDGVTYGSGTASSKKLAKNKAARATLEILIPDFVKQTSEEKPKDSEELEYFNHISIEDSRVYELTSKAGLLSPYQILHECLKRNHGMGDTSIKFEVVPGKNQKSEYVMACGKHTVRGWCKNKRVGKQLASQKILQLLHPHVKNWGSLLRMYGRESSKMVKQETSDKSVIELQQYAKKNKPNLHILSKLQEEMKRLAEEREETRKKPKMSIVASAQPGGEPLCTVDV

Reference: US8053186 (OHIO STATE UNIVERSITY RESEARCH FOUNDATION, dated 2011)
